B1: BS-B Fab (soluble, purified) (Fab, V domains shown)
VH: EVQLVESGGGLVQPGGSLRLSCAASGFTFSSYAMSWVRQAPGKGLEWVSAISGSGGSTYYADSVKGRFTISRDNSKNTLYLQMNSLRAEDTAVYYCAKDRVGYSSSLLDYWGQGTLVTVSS
VL: NFMLTQPHSVSESPGKTVTISCTRSSGSIASYYVQWYQQRPGSSPTTVIYEDDQRPSGVPDRFSGSIDSASNSASLTISGLQTEDEADYYCQSYDRNSLVFGGGTKLTVLG
B2: BS-B IgG (antibody, V domains shown)
VH: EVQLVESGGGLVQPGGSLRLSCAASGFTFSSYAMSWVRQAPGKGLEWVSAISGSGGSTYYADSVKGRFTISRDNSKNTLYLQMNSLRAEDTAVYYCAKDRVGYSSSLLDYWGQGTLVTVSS
VL: B1 VL
B3: BS-A Fab (soluble, purified) (Fab, V domains shown)
VH: QVQLQQWGAGLLKPSETLSLTCAVYGGSFSGYYWSWIRQPPGKGLEWIGEINHSGSTNYNPSLKSRVTISVDTSKNQFSLKLSSVTAADTAVYYCARGRARNWRSRFDYWGQGTLVTVSS
VL: NFMLTQPHSVSESPGKTVTISCTGSSGSIASHYVQWYQQRPGSAPTNVIYEDKERPSGVPDRFSGSIDSSTNSASLTISGLKTEDEADYYCQSYDSSNQWVFGGGTKLTVLG
B4: BS-A IgG (antibody, V domains shown)
VH: B3 VH
VL: B3 VL
B5: Fab phage clone "IFN-A" (Fab, V domains shown)
VH: EVQLQQWGAGLLKPSETLSLTCAVYGGSFSGYYWSWIRQPPGKGLEWIGEINHSGSTNYNPSLKSRVTISVDTSKNQFSLKLSSVTAADTAVYYCARGWPTYVWGSYRPKGYFDYWGQGTLVTVSS
VL: EIVLTQSPLSLPVTPGEPASISCRSSQSLLHTNEYNYLDWYLQKPGQSPQLLIYLGSNRAPGVPDRFSGSGSGTDFTLRISRVEADDVGVYYCMQALQTPRTFGQGTKLEIKR
B6: IFN-A IgG (antibody, V domains shown)
VH: B5 VH
VL: B5 VL
B7: GP-A IgG (antibody, V domains shown)
VH: QVQLVETGGGVVQPGRSLRLSCAASGFTFSSYAMHWVRQAPGKGLEWVAVISYDGSNKYYADSVKGRFTISRDNSKNTLYLQMNSLRAEDTAVYYCASDLVLTMTSRRAAFDIWGQGTMVTVSS
VL: SYELTQPPSVSVSPGQTARITCSGDVLARKYARWFQQKPGQAPVLVIYKDRERPSGIPERFSGSTSGTTVTLTISGAQVEDEADYYCYSAADNRGVFGGGTKLTVLR
B8: Fab phage clone "GP-A" (Fab, V domains shown)
VH: B7 VH
VL: B7 VL
B9: 57E IgG (antibody, V domains shown)
VH: QVQLQESGPGLVKPSETLSLTCAVSGGSISSGGYSWSWIRQPPGKGLEWIGYIYHSGSTYYNPSLKSRVTISVDRSKNQFSLKLSSVTAADTAVYYCARGDWGYFDYWGQGTLVTVSS
VL: NFMLTQPHSVSESPGKTVTISCTGSSGSIANNYVHWYQQRPGSAPTTVIFEDDQRPSGVPDRFSGSVDSSSNSASLSISGLKTEDEADYYCQSYDNSNSFVVFGGGTKLTVLG

As a reminder, the Kd is the equilibrium constant for the complex coming apart.

In one experiment the target is T1, CHO expressed human interferon gamma (hIFNγ) (human, UniProt P01579 24-161, glycosylated (highly glycosylated form purified)).
T1 chain: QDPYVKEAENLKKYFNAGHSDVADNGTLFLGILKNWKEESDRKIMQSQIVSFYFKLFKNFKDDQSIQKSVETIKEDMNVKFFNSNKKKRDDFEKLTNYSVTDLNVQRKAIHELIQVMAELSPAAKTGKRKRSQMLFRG
In words: BIAcore. (In general: In SPR one partner is held on a chip, and binding of the other changes the refractive index at the surface.)
Molecule B1 showed a Kd of 83.5 nM.
Still for that read-out and setting: the value for B2 was 0.5 nM; that for B3 was 84.3 nM; that for B4 was 6 nM.
Same read-out and setting: the value for B5 was 420 nM.
On the same count and under the same terms, for B6 the value was 18 nM; for B7, 8 nM.
B8: the affinity, expressed as Kd, was 150 nM. This Kd lies about 19-fold higher than the previous one.

The next experiment concerns the target T1, CHO expressed human interferon gamma …. Description: BIAcore. This is another data set of the same source.
Molecule B2 displayed a dissociation constant (Kd) of 0.5 nM.
B4 registered a Kd of 6 nM. This Kd is about 12-fold higher than that of the molecule before.
B6 returned a dissociation constant (Kd) of 18 nM.
On the same count and under the same terms, the value for B9 was 200 nM.
Same read-out and setting: for B7 the value was 8 nM.

Source of the values: patent US20030099647A1 (published 2003).
